Measured values reported in article PMC5988983.

Columns and labels:
[1] = target: γ-Resorcylate decarboxylase (γ-RSD) from Polaromonas sp. JS666, His6-tagged (Polaromonas sp. JS666); assay: crystal structure
purified protein [2] = substrate: O=C(O)c1c(O)cc(O)cc1O; assay: purified protein; type: biochemical, Polaromonas sp. JS666; conditions: 50 mM HEPES pH 7.0, 30 °C
purified protein [3] = substrate: O=C(O)c1cccc(O)c1O; assay: purified protein; type: biochemical, Polaromonas sp. JS666; conditions: 50 mM HEPES pH 7.0, 30 °C
purified protein [4] = substrate: O=C(O)c1c(O)cccc1O; assay: purified protein; type: biochemical, Polaromonas sp. JS666; conditions: 50 mM HEPES pH 7.0, 30 °C
purified protein [5] = substrate: Cc1cc(O)c(C(=O)O)c(O)c1; assay: purified protein; type: biochemical, Polaromonas sp. JS666; conditions: 50 mM HEPES pH 7.0, 30 °C

In the case of “γ-Resorcylate decarboxylase (γ-RSD) from Polaromonas sp. JS666, His6-tagged (enzyme)”, the stoichiometry N [1] is reported as 4.

B1: γ-RSD (γ-resorcylate decarboxylase) (Polaromonas sp. JS666) (protein)
chain: MNGKIALEEHFATEETLMDSAGFVPDKDWPELRSRLLDIQDRRVRLMDEHGIETMILSLNAPAVQAIADSTRANETARRANDFLAEQVAKQPTRFRGFAALPMQDPELAARELERCVKELGFVGALVNGFSQDNRSAVPLYYDMAQYWPFWETVQALDVPFYLHPRNPLPSDARIYDGHAWLLGPTWAFGQETAVHALRLMGSGLFDKYPALKIILGHMGEGLPYSMWRIDHRNAWIKTTPKYPAKRKIVDYFNENFYLTTSGNFRTQTLIDAILEIGADRILFSTDWPFENIDHAADWFENTSISEADRKKIGWGNAQNLFKLNR
In the case of B1, the Km (purified protein [2]) is reported as 48 ± 1 µM, the kcat (purified protein [2]) is reported as 0.18 ± 0.01 s⁻¹ and the kcat/Km (purified protein [2]) is reported as 3800 ± 300 M⁻¹ s⁻¹. For the same molecule, the Km (purified protein [3]) was 111 ± 11 µM, the kcat (purified protein [3]) was 0.47 ± 0.02 s⁻¹ and the kcat/Km (purified protein [3]) was 4200 ± 500 M⁻¹ s⁻¹. It also gave a Km (purified protein [4]) of 32 ± 2 µM, a kcat (purified protein [4]) of 0.44 ± 0.01 s⁻¹ and a kcat/Km (purified protein [4]) of 13000 ± 1000 M⁻¹ s⁻¹. It also gave a Km (purified protein [5]) of 79 ± 6 µM, a kcat (purified protein [5]) of 0.38 ± 0.01 s⁻¹ and a kcat/Km (purified protein [5]) of 4800 ± 400 M⁻¹ s⁻¹.
